Results published in PMC3936483.

Experiments:
[1] = target: CTRP2 (C1q/TNF-related protein 2), C-terminal FLAG- or HA-tagged, full length (mouse) (UniProt Q9D8U4); assay: SEC
[2] = target: serum CTRP2 (mouse (endogenous in C57BL/6 serum)) (UniProt Q9D8U4); assay: SEC

Sequence of CTRP2 (C1q/TNF-related protein 2), C-terminal FLAG- or HA-tagged, full length (Q9D8U4 25-294): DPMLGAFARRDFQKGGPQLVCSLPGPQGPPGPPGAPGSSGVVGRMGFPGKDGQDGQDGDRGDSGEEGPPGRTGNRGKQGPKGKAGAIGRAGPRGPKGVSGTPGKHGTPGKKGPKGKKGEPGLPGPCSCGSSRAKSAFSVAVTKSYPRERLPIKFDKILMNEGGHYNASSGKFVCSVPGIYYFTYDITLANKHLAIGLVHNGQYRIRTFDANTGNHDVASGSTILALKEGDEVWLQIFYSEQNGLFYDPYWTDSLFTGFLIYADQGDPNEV
Sequence of serum CTRP2 (Q9D8U4 25-294): as above

Substance	stoichiometry N [1]	stoichiometry N [2]
CTRP2 (C1q/TNF-related protein 2), C-terminal FLAG- or HA-tagged, full length (from UniProt Q9D8U4 25-294) (natural protein)	3	
serum CTRP2 (from UniProt Q9D8U4 25-294) (natural protein)		3
